Data as given in US20130171133A1 (IMPERIAL INNOVATIONS, published 2013).

What was measured:
[1] = biological target: T1, FGFR1 (full length, from cell lysates; endogenous or SK-OV-3 cells transiently transfected with FGFR1 cDNA) (human, UniProt P11362 22-822); test: co-IP with OPCML Ab, immunoblot with anti-FGFR1 ECD Ab, FIG. 2A(ii)
T1 construct: whole, on cells; Tested from detergent cell lysates (co-IP, GST pull-down); also called fibroblast growth factor receptor 1
Protocol: Cell layers were washed in PBS and incubated for 30 minutes in lysis buffer (1% TritonX-100, 10 mM Tris pH8.0, 150 mM NaCl, 2.5 mM MgCl₂, 5 mM EGTA, 1 mM Na₃VO₄, 50 mM NaF and […] (Roche). Cell Lysates were then cleared by centrifugation at 13,000 rpm for 20 minutes at 4° C. and aliquots containing equal amounts of protein were incubated with the appropriate antibody before addition of secondary antibody conjugated to sepharose resin. Beads were then washed 3× with lysis buffer and eluted by heating for 5 minutes in […] of SDS sample buffer.

[2] = biological target: T2, EphA2 (from cell lysates) (human, UniProt P29317 24-976); test: co-IP and reciprocal co-IP, FIG. 17A
T2 construct: whole, on cells; Tested by co-immunoprecipitation from cell lysates

[3] = biological target: HER2 (full length, from SK-OV-3 derived cell lysates) (human, UniProt P04626 23-1255); test: cell-based or functional assay

T1 sequence (P11362 22-822): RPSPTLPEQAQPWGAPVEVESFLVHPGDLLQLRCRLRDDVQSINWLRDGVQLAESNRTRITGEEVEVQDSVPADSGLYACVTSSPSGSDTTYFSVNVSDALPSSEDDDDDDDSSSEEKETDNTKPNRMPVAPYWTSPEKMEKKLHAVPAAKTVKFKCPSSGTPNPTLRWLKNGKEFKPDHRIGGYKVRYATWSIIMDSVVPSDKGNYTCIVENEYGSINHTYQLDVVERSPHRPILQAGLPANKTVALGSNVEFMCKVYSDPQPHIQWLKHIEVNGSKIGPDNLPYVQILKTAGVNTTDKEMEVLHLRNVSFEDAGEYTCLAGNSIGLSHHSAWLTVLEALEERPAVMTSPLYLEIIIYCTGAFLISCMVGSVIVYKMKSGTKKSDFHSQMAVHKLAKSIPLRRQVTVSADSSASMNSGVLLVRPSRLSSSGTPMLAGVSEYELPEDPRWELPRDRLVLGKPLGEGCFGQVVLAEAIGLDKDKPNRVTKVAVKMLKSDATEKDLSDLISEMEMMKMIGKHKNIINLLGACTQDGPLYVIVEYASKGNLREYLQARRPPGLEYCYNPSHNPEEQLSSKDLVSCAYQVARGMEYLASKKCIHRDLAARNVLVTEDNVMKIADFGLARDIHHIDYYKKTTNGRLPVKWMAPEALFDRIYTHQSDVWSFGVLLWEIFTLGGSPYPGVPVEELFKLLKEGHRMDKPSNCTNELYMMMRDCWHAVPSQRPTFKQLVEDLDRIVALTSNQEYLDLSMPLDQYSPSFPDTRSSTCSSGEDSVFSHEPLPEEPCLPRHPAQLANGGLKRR

- binding result [1]: binds
- binding result [2]: binds
- fold decrease in effective concentration of lapatinib required to abolish the EGF induced phospho-ERK signal, BKS2.1 against SKOBS-V1.2 [3]: 10 fold
B1: OPCML (opioid binding protein cell adhesion molecule), human, expressed in cells (stably transfected SK-OV-3 lines BKS2.1 and SKOBS-3.5) (other)
chain: GVPVRSGDATFPKAMDNVTVRQGESATLRCTIDDRVTRVAWLNRSTILYAGNDKWSIDPRVIILVNTPTQYSIMIQNVDVYDEGPYTCSVQTDNHPKTSRVHLIVQVPPQIMNISSDITVNEGSSVTLLCLAIGRPEPTVTWRHLSVKEGQGFVSEDEYLEISDIKRDQSGEYECSALNDVAAPDVRKVKITVNYPPYISKAKNTGVSVGQKGILSCEASAVPMAEFQWFKEETRLATGLDGMRIENKGRMSTLTFFNVSEKDYGNYTCVATNKLGNTNASITLYGPGAVIDGVN
modifications: GPI anchor at N322; N-linked glycosylation
notes: Full OPCML cDNA in pcDNA3.1zeo, expressed in SK-OV-3 derived lines; immunoprecipitated from Triton X-100 cell lysates; also called OBCAM; OPCML polypeptide
